Values of other authors, collected in patent US12628856B2, “Nutritional composition having lipophilic compounds with improved solubility and bioavailability” (Abbott Laboratories, priority 2013, dated 2026).

B1: StARD3: reference protein with published lutein Kd (protein, UniProt Q14849 1-445, looked up)
StAR-related lipid transfer …: MSKLPRELTRDLERSLPAVASLGSSLSHSQSLSSHLLPPPEKRRAISDVRRTFCLFVTFDLLFISLLWIIELNTNTGIRKNLEQEIIQYNFKTSFFDIFVLAFFRFSGLLLGYAVLRLRHWWVIAVTTLVSSAFLIVKVILSELLSKGAFGYLLPIVSFVLAWLETWFLDFKVLPQEAEEERWYLAAQVAVARGPLLFSGALSEGQFYSPPESFAGSDNESDEEVAGKKSFSAQEREYIRQGKEATAVVDQILAQEENWKFEKNNEYGDTVYTIEVPFHGKTFILKTFLPCPAELVYQEVILQPERMVLWNKTVTACQILQRVEDNTLISYDVSAGAAGGVVSPRDFVNVRRIERRRDRYLSSGIATSHSAKPPTHKYVRGENGPGGFIVLKSASNPRVCTFVWILNTDLKGRLPRYLIHQSLAATMFEFAFHLRQRISELGARA
B2: GSTP1: reference protein with published lutein Kd (protein, UniProt P09211 2-210, looked up)
Glutathione S-transferase P: PPYTVVYFPVRGRCAALRMLLADQGQSWKEEVVTVETWQEGSLKASCLYGQLPKFQDGDLTLYQSNTILRHLGRTLGLYGKDQQEAALVDMVNDGVEDLRCKYISLIYTNYEAGKDDYVKALPGQLKPFETLLSQNQGGKTFIVGDQISFADYNLLDLLLIHEVLAPGCLDAFPLLSAYVGRLSARPKLKAFLASPEYVNLPINGNGKQ

Details: Kd Source: Published; read-out: Lutein Kd

Row | Molecule | Kd
1 | B1 | 450 nM
2 | B2 | 1350 nM
